Data from patent US20030167487A1 (Takeda / Millennium, published 2003).

What was measured:
human vWf [1] = biological target: T1, human vWf (human, UniProt P04275 764-2813); assay: flow cytometry, FITC-vWf on mouse platelets in PRP stimulated with ADP and epinephrine (no botrocetin)
T1 construct: Plasma-type multimeric protein; It was coated on plates (25-500 ng/well) in the adhesion assay and FITC-labeled (F/P ratio 1-4) in the flow cytometry assay; also called FITC˜vWf

human vWf [2] = biological target: T1, human vWf; assay: platelet adhesion to vWf-coated 96-well plates (25-500 ng/well) with botrocetin 4 µM; bound platelets read by acid phosphatase activity
Procedure: 96-well plates were coated with various concentrations (25-500 ng/well) of human vWf overnight at 4° C. Pooled WP from mice were resuspended in Mg²⁺-free CFTH buffer (1.2×10⁸/mL) containing botrocetin (4 μM), and incubated immobilized human vWf for 1 hour at room temp. Following two PBS washes, bound platelets were lysed and intracellular acid phosphatase activity was quantitated calorimetrically using the substrate pNPP (Sigma).

Row | Binder | binding result (human vWf [1]) | binding result (human vWf [2])
1 | mouse αIIbβ3 on platelets (receptor, whole, on cells; Native receptor on washed mouse platelets of GP V wt, +/- and -/- genotype; also called mouse fibrinogen receptor; GPIIb-IIIa) chain 1: LNLDSEKFSVYAGPNGSHFGFSVDFHKDKHGSVSIVVGAPRALNASQEETGAVFLCPWKANGGKCNPLLFDLRDETRNLGFQIFQTFKTGQGLGASVVSWNDVIVACAPWQHWNVLEKRDEAEKTPVGGCFLAQLQSGGRAEYSPCRANTMSSVYAESFRGDKRYCEAGFSLAVTQAGELVLGAPGGYFFLGLLARVPIENIISSYRPGTLLWHVSNQRFTYDNSNPVFFDGYRGYSVAVGEFDGDPSTTEYVSGAPTWSWTLGAVEILDSYYQPLHRLHGEQMASYFGHSVAVTDVNGDGRHDLLVGAPLYMESRADRKLAEVGRVYLFLQPKGPQALSTPTLLLTGTQLYGRFGSAIAPLGDLNRDGYNDIAVAAPYGGPSGQGQVLIFLGQSEGLSPRPSQVLDSPFPTGSGFGFSLRGAVDIDDNGYPDLIVGAYGASKVAVYRAQPVVMATVQLMVQDSLNPTLKNCVLDQTKTPVSCFNIQMCVGATGHNIPQKLHLKAELQLDLQKPRQGRRVLLLASQQASLTLSLDLGGRDKPICHTTGAFLRDEADFRDKLSPIVLSLNVSLPPEETGGAPAVVLHGETHVQEQTRIILDCGEDDLCVPQLRLTATAGDSPLLIGADNVLELKIEAANDGEGAYEAELAVHLPPGAHYMRALSNIEGFERLVCTQKKENESRVALCELGNPMKKDTRIGITMLVSVENLEEAGESVSFQLQVRSKNSQNPNSKVVMLPVAIQAEATVELRGNSFPASLVVAAEEGDREQEDLDRWVSRLEHTYELHNIGPGTVNGLRLLIHIPGQSQPSDLLYILDVQPQGGLLCSTQPSPKVDWKLSTPSPSSIRPVHHQRERRQAFLQGPKPGQQDPVLVSCDGSASCTVVECELREMVRGQRAMVTVQVMLGLSSLRQRPQEQFVLQSHAWFNVSSLPYSVPVVSLPSGQARVQTQLLRALEERAIPVWWVLVGVLGGLLLLTLLVLAMWKAGFFKRNRPPLEEDEEEE chain 2: ESNICTTRGVNSCQQCLAVSPVCAWCSDETLSQGSPRCNLKENLLKDNCAPESIEFPVSEAQILEARPLSSKGSGSSAQITQVSPQRIALRLRPDDSKIFSLQVRQVEDYPVDIYYLMDLSFSMKDDLSSIQTLGTKLASQMRKLTSNLRIGFGAFVDKPVSPYMYISPPQAIKNPCYNMKNACLPMFGYKHVLTLTDQVSRFNEEVKKQSVSRNRDAPEGGFDAIMQATVCDEKIGWRNDASHLLVFTTDAKTHIALDGRLAGIVLPNDGHCHIGTDNHYSASTTMDYPSLGLMTEKLSQKNINLIFAVTENVVSLYQNYSELIPGTTVGVLSDDSSNVLQLIVDAYGKIRSKVELEVRDLPEELSLSFNATCLNNEVIPGLKSCVGLKIGDTVSFSIEAKVRGCPQEKEQSFTIKPVGFKDSLTVQVTFDCDCACQAFAQPSSPRCNNGNGTFECGVCRCDQGWLGSMCECSEEDYRPSQQEECSPKEGQPICSQRGECLCGQCVCHSSDFGKITGKYCECDDFSCVRYKGEMCSGHGQCNCGDCVCDSDWTGYYCNCTTRTDTCMSTNGLLCSGRGNCECGSCVCVQPGSYGDTCEKCPTCPDACSFKKECVECKKFNRGTLHEENTCSRYCRDDIEQVKELTDTGKNAVNCTYKNEDDCVVRFQYYEDTSGRAVLYVVEEPECPKGPDILVVLLSVMGAILLIGLATLLIWKLLITIHDRKEFAKFEEERARAKWDTANNPLYKEATSTFTNITYRGT | no binding | –
2 | mouse GP Ib on platelets (receptor, whole, on cells; Native receptor on mouse platelets of GP V wt, +/- and -/- genotype, present there in complex with GP IX (and with GP V in wt); also called GP Ib-IX (complex on platelets)) chain 1: QHTCSISKVTSLLEVNCENKKLTALPADLPADTGILHLGENQLGTFSTASLVHFTHLTYLYLDRCELTSLQTNGKLIKLENLDLSHNNLKSLPSLGWALPALTTLDVSFNKLGSLSPGVLDGLSQLQELYLQNNDLKSLPPGLLLPTTKLKKLNLANNKLRELPSGLLDGLEDLDTLYLQRNWLRTIPKGFFGTLLLPFVFLHANSWYCDCEILYFRHWLQENANNVYLWKQGVDVKDTTPNVASVRCANLDNAPVYSYPGKGCPTSSGDTDYDDYDDIPDVPATRTEVKFSTNTKVHTTHWSLLAAAPSTSQDSQMISLPPTHKPTKKQSTFIHTQSPGFTTLPETMESNPTFYSLKLNTVLIPSPTTLEPTSTQATPEPNIQPMLTTSTLTTPEHSTTPVPTTTILTTPEHSTIPVPTTAILTTPKPSTIPVPTTATLTTLEPSTTPVPTTATLTTPEPSTTLVPTTATLTTPEHSTTPVPTTATLTTPEHSTTPVPTTATLTTPEPSTTLTNLVSTISPVLTTTLTTPESTPIETILEQFFTTELTLLPTLESTTTIIPEQNSFLNLPEVALVSSDTSESSPFLNSDFCCFLPLGFYVLGLLWLLFASVVLILLLTWTWHVTPHSLDMEQSAALATSTHTTSLEVQRARQVTMPRAWLLFLQGSLPTFRSSLFLWVRPNGRVGPLVAGRRPSALSQGRGQDLLGTVGIRYSGHSL chain 2: PAPCSCAGTLVDCGRRGLTWASLPAAFPPDTTELVLTGNNLTALPPGLLDALPALRAAHLGANPWRCDCRLLPLRAWLAGRPERAPYRDLRCVAPPALRGRLLPYVAEDELRAACAPGLLCWGALVAQLALLVLGLLHALLLALLLGRLRRLRARARARSIQEFSLTAPLVAESARGGAS | – | binds
